# Test results published in PMC9972897 (Science immunology, 2023).
# Changes are numbered by the printed parent chain.
# B1: sd1.040 monoclonal antibody (IgG) (antibody, V domains shown)
# VH: QVQLVQSGAEVKKPGASVKVSCKASGYTFTSFYIHWVRQAPGQGLEWMGIIDPSGGSTSYPQKFQGRVTMTRDTSTSTVYMDLSSLRSEDTAVYYCTRDGSAGDNSWFDPWGQGTLVTVSS
# VL: not shown
# B2: hr2.016 monoclonal antibody (IgG) (antibody, V domains shown)
# VH: EVQLLESGGGLVQPGGSLRLSCAASGFMFSKYAMTWVRQTPGKGLEWVSVISGGGGSTYYADSVKGRFTISRDNSKNTLYLQMNSLRAEDTAVYYCAKLLVVFVIDYWGQGALVTVSS
# VL: EIVLTQSPGTLSLSPGERATLFCRASQSVSSNLAWYQQKPGRAPRLLISGASSRATGIPDRFSGSGSGTDFTLTISRLEPEDFAVYYCQQYGSSPPTFGQGTKVEIK
# B3: fp.006 monoclonal antibody (IgG) (antibody, V domains shown)
# VH: EVQLVESGGGVVQPGGSLRLSCAASGFNFNNYALHWVRQAPGKGLEWVAIISYEARNKKYGVSVMGRFSISRDNSKSIMYLEMNSLRVEDTGVYYCARDLFLSDYDRSGYDPTRGGFDHWGQGTLVTVSS
# VL: EIVMTQSPATLSVSPGERATLSCRASQSVSSSLAWYQHRFGQAPRLLISGASTRATGIPGRFSGSGSGTEFTLTISSLQSEDVAVYYCQQYGDWPLVTFGGGTKVEIK
# B4: hr2.023 monoclonal antibody (IgG) (antibody, V domains shown)
# VH: QVQLVQSGAEVKKPGASVKVSCRASENIFSDSYLHWVRQAPGQGLEWMGIITPSGDKTFYAQQFQGRLTMTRDTPTNTLHMDLRGLTSADTAIYYCARQATKGGWDYWGQGTLVTVSS
# VL: EIVLTQSPGTLSLSPGESATLSCRASQSVTRNYLAWYQQQPGQAPRLLIYGASNRATGVPDRFSGSGSGTDFTLTISRLEPEDFAVYYCQQYGSSPPTFIFGPGTKVDIK
# B5: fp.007 monoclonal antibody (IgG) (antibody, V domains shown)
# VH: EVQLVESGGGLVKPGGSLRLSCAGTGFIFSDAWMTWVRQAPGKGLEWVGRIKSKADGGTTDYAAPVKGRFTISRDDSKNTLYLEINSLKTEDTAVYYCTTGRSRYCIGAVCYYFDHWGQGTLVTVSS
# VL: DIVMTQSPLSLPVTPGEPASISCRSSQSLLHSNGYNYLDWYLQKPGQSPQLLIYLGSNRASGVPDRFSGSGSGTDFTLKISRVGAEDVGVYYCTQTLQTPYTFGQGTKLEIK
# B6: fp.004 (antibody, V domains shown)
# VH: VQLVESGGGVVQPGTSLRLSCVASGFTFSNYAMHWVRQAPGKGLEWVAIISFDTRNTASAASVKGRFNISRDNSKNSLYLQMNSLRPEDTGVYYCARDLFLSDYDSRGYDPITGGFDCWGQGTLVTVSS
# VL: EIVMTQSPAALSVSPGEGATLSCRASQSVGSRLAWYQQKLGRPPRLLIYGASTRATGIPARFSGSGSGTEFTLTISSLQSEDFAVYYCQQYNDWPLLTFGGGTKVKIK
# B7: fp.002 (antibody, V domains shown)
# VH: VQLVESGGGVVQPGTSLRLSCAGSGFNFDNYAIHWVRQAPGQGLEWVAIISYEARNKKYAGSVTGRFSISRDNSKSMVYLQMDSLRGEDTAVYYCARDLFLSDYDRSGYDPTRGGFDLWGQGTLVTVSS
# VL: B3 VL with R39K, F40L, S49Y, V85I
# B8: fp.008 (antibody, V domains shown)
# VH: VQLVESGGGVVQPGRSLRLSCRASGFRFNNYAMHWVRQAPGKGLEWVAIISYEARNEKYAASVKGRFSISRDNAKNTLYLQMNSLRPEDTAIYYCARDVFLSDYDQSGYDVTRGGFDYWGQGTLVTVSS
# VL: B3 VL with R18S, R39K, S49Y, G60D, T69M, V85I
# B9: fp.009 (antibody, V domains shown)
# VH: VQLVESGGGVVQPGTSLTLSCEASGFTFSNYAMHWVRQAPGKGLEWVAIISFDTRNKKFAGSVQGRFSISRDNAKNSIYLQMNNLRPEDTGIYYCARDVFLSDYDSRGFDRTRGGFDYWGQGTLVTVSS
# VL: B6 VL with A10T, G18K, Q27E, R32S, R42Q, P43A, T69A, V85I, N92G, K106E
# B10: fp.005 (antibody, V domains shown)
# VH: VQLVESGGGVVQPGNSLRLSCAASGFRFNNYAMHWVRQAPGKGLEWVAIISYEARNEKYADSVKGRFSISRDNAKNTLYLQMNSLRADDTGVYYCARDLFLSDYDTSGYDRTRGGFDYWGQGALVTVSS
# VL: B3 VL with S31N, S32G, A43P, S49Y, G60T, V83F, G92D, V97I
# B11: fp.003 (antibody, V domains shown)
# VH: VQLVESGGGVVQPGTSLRLSCTASGFSFSNYAMHWVRQAPGKGLEWVAIISFDTRNKEFADSVKGRFSISRDNSKNSLNLQMNSLRPEDTGVYYCARDLFLSDYDSRGYEPSRGGFDYWGQGTLVTVSS
# VL: B6 VL with A10T, G18R, G30S, R32S, R42Q, Q79K, F83S, T98S, K106E
# B12: sd1.040 Fab (Fab, V domains shown)
# VH: B1 VH
# VL: not shown
# B13: fp.006 Fab (Fab, V domains shown)
# VH: B3 VH
# VL: B3 VL
# Biological target: T1, SARS-CoV-2 S (ancestral), C-terminally truncated, expressed on 293T cells (SARS-CoV-2 (ancestral, Wuhan-Hu-1), UniProt P0DTC2)
# Test: cell-based or functional assay
# Conditions: not given
row,Binder,IC50 of neutralisation of SARS-CoV-2 pseudovirus [µg/mL]
1,B1,0.245
2,B2,0.01
3,B3,0.737

# Biological target: T1, SARS-CoV-2 S (ancestral), C-terminally …
# Test: flow cytometry on cells
# Conditions: one partner purified
Binder,fold increase of binding (gMFI) with soluble ACE2 [fold],binding result
B4,2.4,–
B2,2.3,–
B5,–,binds
B3,5.8,–

# Biological target: SARS-CoV-2 S-2P ectodomain trimer (ancestral) (SARS-CoV-2 (ancestral, MN908947), stabilised)
# Test: not given
# Conditions: not given
row,Binder,binding result
1,B6,binds
2,B7,binds
3,B8,binds
4,B9,binds
5,B10,binds
6,B11,binds

# Biological target: T2, SARS-CoV-2 fusion peptide (FP) coldspot peptide, 812-831 (SARS-CoV-2 (ancestral), biotin-Ahx at the N-terminus; C-terminal amidation)
# Test: not given
# Conditions: not given
row,Binder,binding result
1,B6,binds
2,B7,binds
3,B8,binds
4,B9,binds
5,B10,binds
6,B11,binds

# Biological target: SD1-RBD of SARS-CoV-2 S (ancestral), aa 319-591 (SARS-CoV-2, ancestral (Wuhan-Hu-1; …, UniProt P0DTC2)
# Test: SPR
# Conditions: both partners purified
row,Binder,Kd [nM]
1,B12,4.2

# Biological target: T2, SARS-CoV-2 fusion peptide (FP) coldspot …
# Test: crystal structure
# Conditions: both partners purified
row,Binder,binding result
1,B13,binds
